Assay results taken from the nanobody polyreactivity screen of Harvey et al. (2022).

test: yeast display, Sf9 membrane polyspecificity reagent, FACS + sequencing; frameworks hold sequencing errors
How it was run: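 In a synthetic yeast display library (Saccharomyces cerevisiae BJ5465), nanobody expression was induced with galactose for 36–48 hours. FACS gates were set low and high (top ~1%) using anti-HA fluorescence for expression and streptavidin fluorescence for binding of the Sf9 membrane reagent. Each polyreactivity label is drawn from the gate of origin.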

Row | Sequence | polyreactivity (PSR sort gate)
1 | QVQLVESGGGLVQAGGSLRLICAASGSTFFPYAMGWYRQAPGKERELVAGISSDGGTSYADSVKGRFTISRDNAKNTVYLQMNSLKPEDTAVYYCAAYYTHQPAHHYWGQGTQVTVSS | low polyreactivity
2 | QVQLVESGGGLVQAGGSLRLSCAASGSIFVQNAMGWYRQAPGKETELVAVINSGDSTNYADSVKGRFTISRDNAKNTVYLQMNSLKPEDTEVYYCAVDDVSYYYLRAYNYELSWYGSGLDYWGQGTQVTVSS | low polyreactivity
3 | QVQLVESGGGLVQAGGSLRLSCAASGLIFRPYTMGWYRQAPGKERELVATISGSGASTNYADSVNGRFTISRDNAKNTVYLQMNSLKPEDTAVYYCKGRCYSRMYYWGQGTQVTVSS | high polyreactivity
4 | QVQLVESGGGLVQAGGSLRLSCAASGFIFFINDMGWYRQAPGKERELVAAISWSGGSTYYADSVKGRFTLSRDNAKNTVYLQMNSLKPEDTAVNYCNTDVPTAQYDYWGQGSQVTVSS | low polyreactivity
5 | QVQLVESGGGLVQAGGSLRLSCAASGSTFTAYVMGWYRQAPGKERELVAAISSSGGRTYYADSVKGRFTISRDNAKNTVYLQMNSLKPEDTAVYYCAARSGPLAYDYWGQGTQVTVSS | high polyreactivity
6 | QVQLVESGGGLVQAGGSLRLSCAASGSIFLVNAMGWSRQAPGKERELVASITWRGGRTYYAASVKGRFTISRDNAKNTVYLQMNSLKPEDTAVYYCAARNYRTGERLRYDYWGQGTQVTVSS | low polyreactivity
7 | QVQLVESGGGLVQAGGSLRLSCAASGSIFWYYAMGWYRQAPGKERELVASISRRGGSTYYADSVKGRFTISRDNAKNTVYLQMNSLKPEDTAVYYCAAYSRTTCSTVQGTYDYWGQGTQVTVSA | low polyreactivity
8 | QVQLVESGGGLVQAGGSLRLSCAASGRTFLPNDMGWYRQAPGKERELVAAITDSGGDTYYADSVKGRFTISRDNAKNTVYLQMNSLKPEDTAVYYCASDYYYYGSYYPVEYWGQGTQVTVSS | high polyreactivity
9 | QVQLVESGGGLVQAGGRLRLSCAASGRIFGKNVMGWYRQAPGKERELVAAISSGGSTYADSVKGRFTISRDNAKNTFYLQMNSLKPEDTAVYYCNTRPRLYGYRPSQYTYDYWGQGTQVTVSS | high polyreactivity
10 | QVQLVESGGGLVQAGGSLRLSAASGSTLAGNTMGWYRQAPGKERELVAAINDSGGSTYYADSVKGRFTISRDNAKNTVYLQMNSLKPEETAVYYCNADGSAYIEDGYDYWGQGTQVTVSS | low polyreactivity
11 | QVQLVESGGGLVQAGGSLRLSCAASGSIIYTNAMGWYRQAPGKERELVAAITGTTTTNYADSVKGRFTISRDNAKNTVYLQKTSLKPEDTAVYYCNADYDRSRVYYSVELYDYWGQGTQVTVSS | low polyreactivity
12 | QVQLEESGGGLVQAGGSLRLSCAASGSIFGYYAMGWYRQAPGKERELVAAITTGGSTSYADSVKGRFTISRDNAKNTVYLQMNSLKPEDTAVYYCNARFKRLFGRADDYWGQGTQVTVSS | low polyreactivity
13 | QVQLVESGGGLVKAGGSLRLSCAASGIPFTFNAMGWYRQAPGKERELVAAITWSGGSTFYADSVKARFTISRDNAKITVYLQMNSLKQEDTAVYYCARETELYVRWLDYWGQGTQGTVSS | low polyreactivity
14 | QVQLVESGGGLVQAGGSLRLSCAASGITFGAYAMGWYRQAPGKERELVASISSSGSTYADSVKGRFTISRDNAKNTVYLQMNSLKPEDTGVYYCNAVGFQANDYNYWGQGTQVTVSS | low polyreactivity
15 | QVQLVESGGGLVQAGGSLRLSCAASGFIIDPNAMGWYSQAPGKERDLVAAISSSGGRTYYADSVKGRFTISRDNAKNTVYFQLNSLKPEDTAVYYCATDTSVQGQEYDYWGKGTQVTVSS | low polyreactivity
16 | QVQLVESGGGLVQAGGSLRLSCAASGSTYYYAMGWYRQAPGKEREFVAAISRDGSSTYYADSVKGRFTISRDNAKYTVYLQMNSLKPEDTAVYYCAASIIRFSTSADKLVTSRYYYWGQGTQVTVSS | high polyreactivity
17 | QVQLVESGVGLVQAGGSLRLSCAASGRIFNRNAMGWYRQAPGKERELVAAISHSVGSTYADSVKGRFTLSRDNAKNTVYLQMNSLKPEDTAVYYCAAKYYFEWNSALDYWGQGTQVTVSS | low polyreactivity
18 | QVQLVESGGGIVQAGGSLRLICAASGYTFNYYAMGWYRQAPGKEREFVASTYADSVKGRFTISRDNAKNTVYLQMNSLKPEDTAVYYCNARNLGRYLVLSYGYWGQGTQVTVSS | low polyreactivity
19 | QVQLVESGGGLVQAGGNLRLSCAASGFIFTRYAMGWYRQAPGKERELVAAISTSGDRTYYADSVKGRFTISRDNAKNTVYLQMNSLKPEDTAVYYCAVEASRAGAWYEYWGQGTQVTVSS | high polyreactivity
20 | QVQLVESGGGLVQAGGSLRLSCAASGFIFRYYAMGWYRQEPGKERELFAAISSTGGSTSYADSVKGRFTISRDNAKNTVYLQMNSLKPEDTAVYYCAADYWIRRRTYGQLYRPYYYWGQGTQVTVSS | high polyreactivity

Row | Sequence | polyreactivity (PSR sort gate)
21 | QVQLVESGGGLVQAGGSLRLSCAASGNTFHSNAMGWYRQAPGKERELVAAITPSDGDTYYADSVKGRFTISRDIAKNTVYLQMNSLKPEDTAVYYCAADPEPSYRFDYWGQGTQVTVSS | low polyreactivity
22 | QVQLVESVGGLVQAGGSLRLSCAASGSIFDWNAMGWYREAPGKERELVASIDWDGGRTYYADSVKGRFTISRDNAKNTVYLQMNSLKPEDTAVYYCAATYYYDWWRGRWSPHIMDYWGQGTQVTVSS | low polyreactivity
23 | QVQLVESGGGLVQAGGSLRLSCAASGIIFPSYAMGWYRQAPGKERELVADISNDDSTNYADSVKGRFTISRDNAKNTVYLQMNSLKPEDTAVYYCNAEEWGFWWRYDYWGQGTQVTVSS | high polyreactivity
24 | QVQLVESGGGLVQAGGSLRLSCAASGFTFYRYAMGWYRQAPGKERELVAAISQRGGRTYYADSVKGRFTISRDNAKTTVYLQMNSLKPEDTAVYYCNARYSGYGLYDYWGQGTQVTVSS | high polyreactivity
25 | QVQLVESGGGLVQAGGSLRLSCAASGSTFIFYAMGWYRQAPGKERELVAAITSSGGSTYYADSVKGRFTISRDNAKNTVYLQMNSLKPEDTAVYYCNTLAYTYGSKFGYWGQGTQVTVSS | low polyreactivity
26 | QVQLVESGGGLVQAGGSLRLSCAASGRTSLRYAMGWYRQAPGKERELVAAITSSGATTYYADSVKGRFTISRDNAKNTVYLQMNSLKPEDTAVYYCAAVYSAKRGSGGFGYWGQGTQVTVSS | high polyreactivity
27 | QVQLVESGGGLVQAGGSLRLSCAATGIIFGDNAMGWYRQAPGKERELVAAFTIGGTSTYNADSVKGRFTISRDNAKNTVYLQMNSQKPEDTAVYYCAKTILYDCDYWGQGTQVTVSS | low polyreactivity
28 | QVQLVESGGGLVQAGGSLRLSCAASGSTFSRNAMGWYRQAPGKERELVAAISRRGDTTYYADSVKGRFTISRDNAKNTVYLQMNSLKPEDTAVYYCNRLTIGSSSYDYWGQGTQVTVSS | high polyreactivity
29 | QVQLVESGGGLVQAGGSLRLSCAASGRIFYPYAMGWSRQAPGKERELVASISGRGTTTYYADSVKGRFTISRDNAKNTVYLQMNSLKPEDTGVYYCNAYPPTQYGYYYWGQGTQVTVSS | high polyreactivity
30 | QVQLVESGGGLVQAGGSLRLSCAASGGMLPKNAMGWYRQAPGKVRELVAGISTRGTSTYYADSVKGRFTISRDNAKNTVYLQMNSLKPEDTAVYYCATSRDYIGYDYWGQGTQVTVSS | low polyreactivity
31 | QVQLLESCGGLVQAGGSLRLSCAASGRIFSYYVMGWYRQAPGKERELVAAITSGGSTNYADSVKGRFTISRDNAKISVYLQLTSLKPVDTAVYYFNRAYTYINRLYGYWGQGTEVTVSS | high polyreactivity
32 | QVQLVESGGGLVQAGGSLRLSCAASGRTFVGNALGGYIQAPGKERELVAAISSGGSTYYADSVKGRFTISRDNAKITVYLQMNSLNPEDTAVYYCAGLYRRGAHGDYWGQGTQVTVSS | low polyreactivity
33 | QVQLVESGGGLVQAGGSLRLSCAASGSTFYQYAMGWYRQAPGKERELVAAISRISGSTSYADSVKGRFTISRDNAKNTVYLQLYSLKPEDTAVYYCAKGTAPIPYRGRVGTSKSDYWGQGTQVTVSS | low polyreactivity
34 | QVQLVESGGGLVQAGGSLRLSCSASGSIFDVFAMGWYRQAPGKERELVAGISRSGGSTYYADSVKGRFTISRDNAKNTVYLQMNSLKPEDTAVYYCAARYTYYRGRYDYWGQGTQVTVSS | low polyreactivity
35 | QVQLVESGGGLVQAGGSLRLSCAASGSMFTGYDMGWYRQAPGKERELVAAITASGSGTYYADSVKGRFTISRDNAKNTVYLQMNSLKPEDTAVYYGNAPYLFYRGDSDHYYYNEGGYWGQGTQVTVSS | high polyreactivity
36 | QVQLVESGGGLVQAGGSLRLSCAASGSNFYIYAMGRYRQAPGKERELVAAISYSGGRTTYADSVKGRFTISRDYAKNTVYLQMNSLKPEDTAVYYCAAGFSYYGLAVAPYRSWGRYYNWGQGTQVTVSS | high polyreactivity
37 | QVQLVESGGGLVQAGGSLRLSCAASGGIFPGNAMGWYRQAPGKERELVATISYSGGSTYYADSVKGRFTISRDYAKNTVYLQMNSLKPEDTAVYYCAARGYKPTRSRRTEYGYWGQGTQVTVSS | high polyreactivity
38 | QVQLVESGGGLVQAGGSLRLSCAASGSIFPYYAMGWYRQAPGKERELVADITSSVGSTYYADSVKGRFTISRDNAKNTVYLQMNSLKPEDTAVYYCAALYWFYVYPFTEYDYWGQGTQVTVSS | low polyreactivity
39 | QVQLVESGGGLVQAGGSLRLSCAASGIFGGYAMGWYRQAPGKERELVAAISYSGGTTYYADSVKGRFTISRDNAKNTVYLQMNSLKPEDTAVYYCNADDPDYLVSYRYDYWGQGTQVTVSS | low polyreactivity
40 | QVQLVESGGGLVQAGGSLRLSCAASGRIFYPYAMGWYRQAPGKERELVAAIDFSDGNSYYADSVKGRFTISRDNAKNTVYLQMYSLKPEDTAVYYCAVDYTGAWIGVWYDYWGLGTQVTVSS | high polyreactivity
